# According to article PMC4295097:
# Molecular target: meditope-enabled trastuzumab
# Assay: SPR
Substance,Kd [nM],kon [M⁻¹ s⁻¹]
meditope-protein L construct with zero length linker (designed binder),170,160000
meditope-protein L construct with three-residue linker PSE (designed binder),1.3,
meditope-protein L construct with six-residue linker PPPGPP (designed binder),1.1,

# Stronger by Kd, values ahead:
Kd [nM],kon [M⁻¹ s⁻¹],Substance
0.18,,meditope-protein L construct with six-residue linker GGPGSE (designed binder)
0.18,,meditope-protein L construct with six-residue linker GGGGSE (designed binder)
